Assay results taken from PMC12591191, “SIRT6 Lysine‐Demyristoylates ATF2 to Ameliorate Vascular Injury via PRKCD/VE‐Cadherin Pathway Regulating Vascular Endothelial Barrier” (Advanced Science, 2025).
Read-outs that look alike come from different tables or passages of the source. Where a SMILES comes first, the peptide text is derived from it. The star is where a group is joined. Biotin = O=C1N[C@H]2[C@H](CS[C@H]2CCCCC(=O)*)N1; Myristoyl = CCCCCCCCCCCCCC(=O)*

Columns and labels:
[1] = test system: B‐H3K9^Myr‐5R; assay: Demyristoylase activity by HPLC; assay type: biochemical; details: UV 220 nm, 6 µM enzyme, 450 µM peptide, Tris‐HCl pH 8.0, 6 mM MgCl2, 1 mM NAD^+, 30 °C, 4 h
Description: (§1) The expression plasmids were transformed in the E.coli Arctic Express (DE3) cells, respectively. The E.coli cells were cultured at 37 °C in 2X YT culture medium. When OD600 reached 0.8, cells were induced by 0.2 mM isopropyl‐1‐thio‐β‐D‐galactopyranoside (IPTG) for 18–20 h at 16 °C. Then, cells were harvested by centrifugation at 6000 rpm for 10min at 4 °C and resuspended in lysis buffer (20 mM Tris‐HCl pH 7.2, 500 mM NaCl, 2% glycerol). Cells were lysed by a high‐pressure homogenizer (Avestin), and centrifuged at 15 000 rpm for […] min at 4 °C. The supernatants were incubated with Ni^+ Sepharose (GE Healthcare) which was pre‐equilibrated in lysis buffer. The resin was washed with 20 column volumes of lysis buffer supplemented with 50 mM imidazole, and then the recombinant proteins were eluted with lysis buffer supplemented with 500 mM imidazole. The eluted fractions were pooled, buffer exchanged (20 mM Tris‐HCl pH 7.2, 250 mM NaCl, 10% glycerol), and concentrated. Finally, the endotoxin was removed by the Pierce High‐Capacity Endotoxin Removal Spin Columns. The purified proteins were stored at −80 °C.
(§2) The peptides B‐H3K9‐5R (biotin‐[…]), B‐H3K9^Ac‐5R (biotin‐KQTARK^Ac[…]), and B‐H3K9^Myr‐5R (biotin‐KQTARK^Myr[…]) were synthesized. Five arginine residues were added to ensure that the peptides were soluble in water. SIRT6 protein SIRT6 and mutants (6 µM) were incubated with the peptides (450 µM) in the reaction system ([…] Tris‐HCl pH 8.0, 6 mM MgCl2, 1 mM NAD^+) at 30 °C. After 4 h, the reactions were terminated by adding 4% TFA at 37 °C for 10 min. After centrifuging at 12 000rpm for 15 min at room temperature, the supernatants were collected and analyzed via HPLC using an Aeris peptide XB‐C18 column (150 × 4.6 mm, 3.6 µm; Phenomenex, USA). The mobile phase consisted of solvent A (0.1% TFA in HPLC‐grade H2O) and solvent B (0.1% TFA in HPLC‐grade acetonitrile). Peptides were eluted in a linear gradient of 0–90% solvent B at 1 ml min^−1 over 19 min. The column temperature was set at 25 °C, and the peptides were monitored with UV light (220 nm).

[2] = test system: B‐H3K9^Ac‐5R; assay: Deacetylase activity by HPLC; assay type: biochemical; details: UV 220 nm, 6 µM enzyme, 450 µM peptide, Tris‐HCl pH 8.0, 6 mM MgCl2, 1 mM NAD^+, 30 °C, 4 h
Description: as §1, §2

[3] = test system: SIRT6; details: SIRT6 inhibitor, cited from earlier work
From the text: Table 2 The inhibitors of SIRT6 were represented with structure, IC50, category, company, indications, and reference. | column: IC50

[4] = test system: ATF2 localization and PRKCD/VE‐cadherin axis in HUVECs; assay: ALK14 versus myristic acid, ATF2 localization and PRKCD/VE-cadherin axis; assay type: cell-based; details: each 10 μg/ml, 12 hours
Description: Protein samples were separated by SDS/PAGE and transferred to the PVDF membrane. The membrane was blocked with 5% BSA in TBST (25 mM Tris, pH 7.4, 150 mM NaCl, 0.1% Tween‐20), incubated with primary antibodies and secondary antibodies in TBST, and then treated with ECL Plus western blotting detection reagents (Bio‐rad). The chemiluminescence signal was analyzed by ChemiDoc imaging system (Bio‐rad).
HMEC‐1, obtained from Shanghai Zhong Qiao Xin Zhou Biotechnology, was cultured in MCDB131 medium containing 10% foetal bovine serum (FBS) and 1% antibiotics (penicillin and streptomycin) in 5% CO2 incubator at 37 °C. HUVEC, obtained from Shanghai Zhong Qiao Xin Zhou Biotechnology, were cultured in ECM medium containing 5% FBS, 1% antibiotics (penicillin and streptomycin) and 1% endothelial cell growth supplement (ECGS) in 5% CO2 incubator at 37 °C. HEK 293T were obtained from ATCC, and cultured in Dulbecco's modified Eagle's medium (DM EM) containing 10% FBS and 1% antibiotics (penicillin and streptomycin) in 5% CO2 incubator at 37 °C. The SIRT6 KO 293T cells were constructed by Hanbio Biotechnology, the SIRT6 gRNA was 5′‐[…]‐3′. SIRT6 overexpression and knockdown recombinant lentivirus were constructed by Hanbio Biotechnology, the vector pGLV3‐harboring SIRT6 and SIRT6 shRNA (5′‐[…]‐3′) were used for lentivirus packaging. […]

[5] = target: T1, SIRT6 H133Y (dSIRT6) (Homo sapiens, UniProt Q8N6T7, H133Y); assay: Co-immunoprecipitation enrichment of myristoylated peptide; assay type: binding; details: Co-IP with negative control peptide, n=3
T1 construct: the full‐length human SIRT6 (1‐355aa) with the flag tag at the C‐terminus; made in house; host or cells: E. coli ArcticExpress (DE3), pET28a
Description: SIRT6/mutants (10 µM) were incubated with B‐H3K9^Myr‐5R or B‐H3K9‐5R (7 µM) in different IP buffers based on buffer (1X PBS, 0.2% tween‐20) at 30 °C for 4h. Then the mixtures were incubated with magnetic flag‐beads at room temperature for 2h. Then, tubes were placed on a magnetic rack for 1 minute, and the supernatants were discarded. The beads were washed three times with an IP buffer and eluted with different elution buffers. The eluants and beads were then analyzed by western blotting with biotin monoclonal antibody or SIRT6 antibody.

[6] = target: T2, SIRT6 G60A (Homo sapiens, UniProt Q8N6T7, G60A); assay: Biolayer interferometry, G60A mutant; assay type: binding; details: BLI, Octet Red96, PBS-T, 120 µM biotin peptide on sensor, analyte G60A 0.18 to 5.5 µM
T2 construct: the full‐length human SIRT6 (1‐355aa) with the flag tag at the C‐terminus; made in house; host or cells: E. coli ArcticExpress (DE3), pET28a
From the text: (§3) The plasmid pUC57‐SIRT6 contained the full‐length human SIRT6 (1‐355aa) with the flag tag at the C‐terminus. The PCR fragment SIRT6‐Flag from pUC57‐SIRT6 was inserted into pET28a vector to obtain the plasmid pET28a‐SIRT6. Then the pET28a‐SIRT6G60A, pET28a‐SIRT6R65A, pET28a‐SIRT6S56Y, and pET28a‐SIRT6H133Y expression plasmids were obtained through site‐directed mutagenesis by PCR. These SIRT6 expression plasmids were used for SIRT6 expression and purification in E.coli.
(§4) The expression plasmids were transformed in the E.coli Arctic Express (DE3) cells, respectively. The E.coli cells were cultured at 37 °C in 2X YT culture medium. When OD600 reached 0.8, cells were induced by 0.2 mM isopropyl‐1‐thio‐β‐D‐galactopyranoside (IPTG) for 18–20 h at 16 °C. Then, cells were harvested by centrifugation at 6000 rpm for 10min at 4 °C and resuspended in lysis buffer (20 mM Tris‐HCl pH 7.2, 500 mM NaCl, 2% glycerol). Cells were lysed by a high‐pressure homogenizer (Avestin), and centrifuged at 15 000 rpm for room temperature min at 4 °C. […]
(§5) To determinate the affinity of SIRT6 proteins to myristoylated peptides, BLI assays were performed in 96 well plates using an Octet Red96 System. […] Meanwhile, the protein‐peptide affinities were also determined after adding several cofactors (5 mM), such as Mg^2+, Zn^2+, ATP, ADP, AMP, cAMP, NAD^+.

[7] = target: T3, SIRT6 (Homo sapiens, UniProt Q8N6T7); assay: Biolayer interferometry, SIRT6; assay type: binding; details: BLI, PBS-T, cofactor 5 mM
T3 construct: the full‐length human SIRT6 (1‐355aa) with the flag tag at the C‐terminus; His-tag (N); made in house; host or cells: E. coli ArcticExpress (DE3), pET28a
From the text: as §3, §4, §5

[8] = test system: aortic endothelium (VE-Cadherin junction continuity); assay: En face VE-Cadherin staining of descending aortas; assay type: in vivo, mouse
Description: Endothelial specific Sirt6 KO (ecSirt6^−/− ) mice (on a C57/Bl6J background) were developed by Cyagen Biosciences lnc. and litter of wild‐type (WT) mice served as control. Genotyping by tail preparation and PCR were performed at 2 weeks of age. All animal procedures were conducted under animal welfare guidelines and were approved by the Animal Ethics Committee of Zhongshan Hospital, Fudan University (EARIA‐389).
The cultivation and collection of mice were described above. Remove the outer membrane and longitudinally cut the thoracic aorta of mice for surface staining. After being fixed in 4% paraformaldehyde for 20 min, 0.5% Triton X‐100 was infiltrated into PBS for 30 min, and 10% normal goat serum was blocked in PBS for 1 h. Then, the corresponding primary antibody was incubated overnight at 4 °C. Then, wash HUVECs or tissues three times with PBS, coupled with the corresponding Alexa Fluor 488‐conjugated goat anti‐rabbit IgG (Thermo, cat#A‐11008) or Alexa Fluor 594 ‐conjugated goat anti‐mouse IgG (Thermo, cat#A‐11 005) (1:500; at room temperature, place in a closed solution for 1 h). Cover the slide with DAPI containing fluorine shielding adhesive medium. Randomly select representative images from each group. Fluorescence signal detection was performed using Leica confocal laser scanning microscope (Leica SP8).

T3 sequence (Q8N6T7 whole entry): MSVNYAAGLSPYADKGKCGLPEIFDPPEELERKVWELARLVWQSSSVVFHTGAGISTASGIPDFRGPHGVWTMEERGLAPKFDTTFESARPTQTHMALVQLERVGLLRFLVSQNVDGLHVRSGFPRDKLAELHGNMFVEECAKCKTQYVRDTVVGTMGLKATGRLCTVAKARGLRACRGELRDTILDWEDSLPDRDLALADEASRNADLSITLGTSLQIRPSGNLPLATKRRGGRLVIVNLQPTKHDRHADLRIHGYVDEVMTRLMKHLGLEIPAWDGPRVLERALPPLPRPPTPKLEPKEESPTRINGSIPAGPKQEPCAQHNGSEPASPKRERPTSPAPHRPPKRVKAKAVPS
T2 sequence (Q8N6T7 whole entry G60A): as the sequence (Q8N6T7 whole entry) above, with G60A counted along it
T1 sequence (Q8N6T7 whole entry H133Y): as the sequence (Q8N6T7 whole entry) above, with H133Y counted along it

SIRT6 WT: full‐length human SIRT6 (1‐355aa) with the flag tag at the C‐terminus, expressed in E.coli
demyristoylase activity [1]: significant demyristoylase activity | deacetylase activity [2]: weak deacetylase activity

Diquercetin
IC50 ([3]; ref [64]): 130 µM

CCCCCCCCCCCCCC(=O)O [natural myristic acid, Myristic acid]
impact on ATF2 localization and PRKCD/VE‐cadherin axis, myristic acid versus ALK14 [4]: equivalent impacts

H133Y: SIRT6 H133Y mutant
demyristoylase activity [1]: lacked both enzymatic activities | deacetylase activity [2]: lacked both enzymatic activities | selectivity of H133Y for myristoylated peptide [5]: confirmed the selectivity

O=C(Nc1ccc(O)c(C(=O)O)c1)c1cccc(NC(=O)c2ccco2)c1 [OSS‐128167]
IC50 ([3]; ref [68]): 89 µM

CCCCCCCCCCCCCC(=O)NCCCC[C@H](NC(=O)[C@H](CCCNC(=N)N)NC(=O)[C@H](C)NC(=O)[C@@H](NC(=O)[C@H](CCC(N)=O)NC(=O)[C@H](CCCCN)NC(=O)CCCC[C@@H]1SC[C@@H]2NC(=O)N[C@@H]21)[C@@H](C)O)C(=O)N[C@@H](CO)C(=O)N[C@H](C(=O)NCC(=O)NCC(=O)N[C@@H](CCCCN)C(=O)N[C@@H](C)C(=O)N[C@@H](CCCNC(=N)N)C(=O)N[C@@H](CCCNC(=N)N)C(=O)N[C@@H](CCCNC(=N)N)C(=O)N[C@@H](CCCNC(=N)N)C(=O)N[C@@H](CCCNC(=N)N)C(=O)O)[C@@H](C)O [B‐H3K9^Myr‐5R] (Biotin-KQTARK(Myristoyl)STGGKARRRRR-OH)
Kd [6]: 1.3 ± 0.11 µM

S56Y: SIRT6 S56Y mutant
demyristoylase activity [1]: lacked both enzymatic activities | deacetylase activity [2]: lacked both enzymatic activities

R65A: SIRT6 R65A mutant
demyristoylase activity [1]: lacked demyristoylase activity | deacetylase activity [2]: weak deacetylase activity

CN1CCN(c2ccc([N+](=O)[O-])c(N)c2)CC1 [5‐(4‐methylpiperazin‐1‐yl)‐2‐nitroaniline]
IC50 ([3]; ref [65]): 4.93 µM

Nc1ncnc2c1ncn2[C@@H]1O[C@H](COP(=O)(O)OP(=O)(O)OP(=O)(O)O)[C@@H](O)[C@H]1O [ATP]
effect of cofactor on SIRT6 affinity for B‐H3K9^Myr‐5R [7]: significantly enhanced SIRT6 affinity

Cc1nn(C)c(C)c1NS(=O)(=O)c1c(Cl)cc(-c2ccnc(N3CCNCC3)c2)cc1Cl [DDD85646]
therapeutic efficacy ([8]; 100 mg kg^−1 day^−1, n = 6–8): suboptimal therapeutic efficacy

Nc1ncnc2c1ncn2[C@@H]1O[C@H](COP(=O)(O)OP(=O)(O)O)[C@@H](O)[C@H]1O [ADP]
effect of cofactor on SIRT6 affinity for B‐H3K9^Myr‐5R [7]: significantly enhanced SIRT6 affinity

G60A: SIRT6 G60A mutant
demyristoylase activity [1]: strong demyristoylase activity | deacetylase activity [2]: without detectable deacetylase activity

NC(=O)c1ccc[n+]([C@@H]2O[C@H](COP(=O)([O-])O)[C@@H](O)[C@H]2O)c1 [NMN]
endothelial damage induced by high‐fat diet in SIRT6‐deficient endothelium ([8]; NMN 100 mg kg^−1 day^−1, n = 6–8): partially rescued endothelial damage
